One block for each molecule: values may come before it.
Key:
[1] = commercial drugs; cited from earlier work
[2] = target: T1, recombinant human FcERI protein (human, UniProt P12319 26-205, limits assumed); assay: Biacore, human IgE on CM5 chip
T1 construct: also called recombinant soluble IgE receptor; IgE receptor R1
T1 sequence (looked up): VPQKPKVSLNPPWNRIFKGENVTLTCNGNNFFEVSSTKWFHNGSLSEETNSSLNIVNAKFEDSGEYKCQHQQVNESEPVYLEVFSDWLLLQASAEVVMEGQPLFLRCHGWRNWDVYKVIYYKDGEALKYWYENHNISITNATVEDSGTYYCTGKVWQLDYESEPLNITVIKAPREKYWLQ
From the text: (§1) Human IgE was immobilized to a CM5 chip (BiaCore) using standard NHS/EDC methods. Sample proteins were dialyzed into HBS buffer overnight, and the dialysis buffer was used as a running buffer for the experiment. Sample proteins were run successively over IgE or ethanolamine coated flow cells, and the data analyzed using the BiaEvaluation software package.

human IgE = human IgE (Homo sapiens, UniProt P01854); assay: Biacore affinity measurements on immobilized human IgE; format: binding; settings: IgE on CM5 chip
From the text: as §1

human PBMC = assay: PBMC assay on human cells; format: cell-based
Procedure: (§2) Efficacy assays were performed using human and monkey PBMC as described above. CD28 results in PBMC assays:
(§3) In order to assay the ex-vivo efficacy of monomers, they were tested on isolated peripheral blood lymphocytes (PBMC). […]. Monomer protein was added in varying concentrations to each culture and incubation occurred for 3 days at 37° C. in a CO2 containing atmosphere. During the last 9 hours, cultures were pulsed with 1 uCi per well of ^3H thymidine (ICN, Costa Mesa, Calif.) and the incorporation of radioactivity was measured on a Wallac Trilux Microbeta scintillation counter (Perkin Elmer, Boston, Mass.). See, FIG. 23.

monkey PBMC = assay: PBMC assay on monkey cells; format: cell-based, cynomolgus monkeys
Procedure: as §2, §3

Molecule: Enbrel
- Human T1/2 [1]: 103 h

Molecule: Remicade: TNFa Antibody
- Human T1/2 [1]: 216 h

Molecule: Rituxan: CD20 Antibody
- Human T1/2 [1]: 78 h

- Kd [2]: 450 nM
B1: human IgE (antibody)
chain: ASTQSPSVFPLTRCCKNIPSNATSVTLGCLATGYFPEPVMVTWDTGSLNGTTMTLPATTLTLSGHYATISLLTVSGAWAKQMFTCRVAHTPSSTDWVDNKTFSVCSRDFTPPTVKILQSSCDGGGHFPPTIQLLCLVSGYTPGTINITWLEDGQVMDVDLSTASTTQEGELASTQSELTLSQKHWLSDRTYTCQVTYQGHTFEDSTKKCADSNPRGVSAYLSRPSPFDLFIRKSPTITCLVVDLAPSKGTVNLTWSRASGKPVNHSTRKEEKQRNGTLTVTSTLPVGTRDWIEGETYQCRVTHPHLPRALMRSTTKTSGPRAAPEVYAFATPEWPGSRDKRTLACLIQNFMPEDISVQWLHNEVQLPDARHSTTQPRKTKGSGFFVFSRLEVTRAEWEQKDEFICRAVHEAASPSQTVQRAVSVNPGK
notes: Immobilized on plates or on a CM5 chip; variable regions and light chain not described

- ka (human IgE): 8.4 × 10^3
- kd (human IgE): 3.8 × 10^−3
B2: FcERI: recombinant human FcERI protein, the IgE receptor (protein)
chain: T1 sequence (looked up)

B3: CD28 10: CD28 trimer, sequence >CD28-A10 (protein)
chain: CGPGRFQCESGQCVPATWVCDGDDDCADGSDEKSCATTAPTCESNQFQCGSGQCLPGTWRCDGVNDCADSSDETGCGRPGPGATSAPAACGPGRFQCNNGNCVPQTLGCDGDNDCGDSSDEANCSAPASEPPGSL
- inhibition (human PBMC): inhibition = 81%
- inhibition (monkey PBMC): inhibition = 81%
